# Experimental data reported in article PMC8835725, “Cryo‐EM structure of the full‐length Lon protease from Thermus thermophilus” (Febs Letters, 2021).
# Values joined by “and” are separate entries in the source; they are usually repeats but may differ in a detail not shown here. Identical values can stand only once.
# B1: N-terminally truncated mutant EcLon^253-784 (domain or fragment, Escherichia coli, UniProt P0A9M0 253-784, looked up)
# chain: ALKRKIDAAKMPKEAKEKAEAELQKLKMMSPMSAEATVVRGYIDWMVQVPWNARSKVKKDLRQAQEILDTDHYGLERVKDRILEYLAVQSRVNKIKGPILCLVGPPGVGKTSLGQSIAKATGRKYVRMALGGVRDEAEIRGHRRTYIGSMPGKLIQKMAKVGVKNPLFLLDEIDKMSSDMRGDPASALLEVLDPEQNVAFSDHYLEVDYDLSDVMFVATSNSMNIPAPLLDRMEVIRLSGYTEDEKLNIAKRHLLPKQIERNALKKGELTVDDSAIIGIIRYYTREAGVRGLEREISKLCRKAVKQLLLDKSLKHIEINGDNLHDYLGVQRFDYGRADNENRVGQVTGLAWTEVGGDLLTIETACVPGKGKLTYTGSLGEVMQESIQAALTVVRARAEKLGINPDFYEKRDIHVHVPEGATPKDGPSAGIAMCTALVSCLTGNPVRADVAMTGEITLRGQVLPIGGLKEKLLAAHRGGIKTVLIPFENKRDLEEIPDNVIADLDIHPVKRIEEVLTLALQNEPSGMQVVTAK
# notes: Lon protease, Escherichia coli, UniProt P0A9M0, residues 253-784 (lacks the NTD and the collar); Tags and their cleavage follow from 'produced as described for full-length EcLon'; also called EcLon truncation including residues 253 to 784; source: E. coli C41(DE3), purified, produced as described for full-length EcLon; not shown: His6, N-terminal, cleaved; SUMO, N-terminal, cleaved
# B2: Lon protease from Escherichia coli, full length (enzyme, UniProt P0A9M0 1-784, looked up)
# chain: MNPERSERIEIPVLPLRDVVVYPHMVIPLFVGREKSIRCLEAAMDHDKKIMLVAQKEASTDEPGVNDLFTVGTVASILQMLKLPDGTVKVLVEGLQRARISALSDNGEHFSAKAEYLESPTIDEREQEVLVRTAISQFEGYIKLNKKIPPEVLTSLNSIDDPARLADTIAAHMPLKLADKQSVLEMSDVNERLEYLMAMMESEIDLLQVEKRIRNRVKKQMEKSQREYYLNEQMKAIQKELGEMDDAPDENEALKRKIDAAKMPKEAKEKAEAELQKLKMMSPMSAEATVVRGYIDWMVQVPWNARSKVKKDLRQAQEILDTDHYGLERVKDRILEYLAVQSRVNKIKGPILCLVGPPGVGKTSLGQSIAKATGRKYVRMALGGVRDEAEIRGHRRTYIGSMPGKLIQKMAKVGVKNPLFLLDEIDKMSSDMRGDPASALLEVLDPEQNVAFSDHYLEVDYDLSDVMFVATSNSMNIPAPLLDRMEVIRLSGYTEDEKLNIAKRHLLPKQIERNALKKGELTVDDSAIIGIIRYYTREAGVRGLEREISKLCRKAVKQLLLDKSLKHIEINGDNLHDYLGVQRFDYGRADNENRVGQVTGLAWTEVGGDLLTIETACVPGKGKLTYTGSLGEVMQESIQAALTVVRARAEKLGINPDFYEKRDIHVHVPEGATPKDGPSAGIAMCTALVSCLTGNPVRADVAMTGEITLRGQVLPIGGLKEKLLAAHRGGIKTVLIPFENKRDLEEIPDNVIADLDIHPVKRIEEVLTLALQNEPSGMQVVTAK
# notes: Lon protease, Escherichia coli, UniProt P0A9M0, full length, untagged after SUMO cleavage; Seen as a mixture of hexamers and dodecamers on EM grids; also called EcLon; EcLon^FL; source: E. coli C41(DE3), purified (Ni-NTA, SUMO tag cleaved with SENP protease, Superose 6 Increase SEC); not shown: His6, N-terminal, cleaved; SUMO, N-terminal, cleaved
# B3: Lon protease from Thermus thermophilus (enzyme, UniProt Q72KS4 1-795, looked up)
# chain: MKDFLRLELPVLPLRNTVVLPHTTTGVDVGRLKSKRAVEEALSADRLLFLVTQKDPEVDDPAPEDLYAVGTLAVVKQAMRLPDGTLQVMVEARSRARLLSYVAAPYLRAVGEAIPEPPLKDPELARVLVNEVQEAFERYLQNHKTLRLDRYQQEAVKSTRDPAILADLVAHHATWTLEEKQTILETPEVEERLKRVLALLLRDLERFELDKKIAARVKEQMDQNQREYYLREQMKAIQKELGGGEDFLTEIEELRERIEKKGMPEPVKEKALKELKRLERMQPGSPEATVSRTYLDWLLEVPWTEADPEVLDISVTKRVLDEDHYGLKEVKERILEYLAVRQLTQGKEVKGHAPILCFVGPPGVGKTSLGKSIARSMNRRFHRISLGGVRDEAEIRGHRRTYIGALPGKIIQGMKQVGVVNPVFLLDEIDKLSSDWRGDPAAALLEVLDPEQNHTFTDHYLDVPYDLSKVFFITTANTLSTIPRPLLDRMEVIEIPGYTLHEKRAIARYFRWPFQVKEAGLEGRLEITDRAIERIVQEYTREAGVRNLDRELSKVARKAAKDYLEKPWEGVRVVDAEDLEAYLGVPKYRPDRAEKEPQVGAAQGLAWTPYGGTLLTIEAVAVPGTGKVNLTGNLGEVMKESAHAALTYLRAHREEWGLPEGFHKDYDLHIHVPEGATPKDGPSAGITIATALASALTGRPVRMDIAMTGEITLRGRVLPIGGVKEKLLAAHQAGIHRVILPKENAAELKEVPEEILKDLEIHFVEEVGEVLKLLLLPPPPPPAVQPDRPQPGVGA
# notes: Lon protease, Thermus thermophilus, UniProt Q72KS4, full length, untagged and unmodified after SUMO cleavage; Homo-hexamer; cryo-EM sample in buffer A with 1 mM AMP-PNP and 5 mM MgCl2; also called TtLon; Lon from T. thermophilus; source: E. coli C41(DE3), purified (Ni-NTA, SUMO tag cleaved with SENP protease, Superose 6 Increase SEC); not shown: His6, N-terminal, cleaved; SUMO, N-terminal, cleaved
# How the values were obtained:
# [1] = molecular target: the molecule itself; experiment: SEC + other: negative staining electron microscopy; Superose 6 Increase 10/300 GL in buffer A (50 mM Tris/HCl, 200 mM NaCl, pH 8.0); oligomer size by column calibration, verified by negative staining EM
# [2] = molecular target: the molecule itself; experiment: electron microscopy on grids; purified EcLon on EM grids
Protein,stoichiometry N [1],stoichiometry N [2]
B1,6,
B2,,6 and 12
B3,6,
